The labels stand for the following.
B1: EV046124 (antibody, human IgG1, lambda, V domains shown)
VH: QVQLVQSGTELKKPGASVKVSCKASGYTFTDYSMHWLRQAPGESLEWMGWVNGGPLDTKYSPTFQDRVSFSRDVFATTAYMDLSSLGPEDTAVYYCARGWGITAYRGDAFDLWGQGTMVIVSS
VL: SFVLTQPPSVSVAPGKSARITCGASNIESKSVHWYQQKPGQAPVVVVYDDDDRPSGIPERFSGSNSGNTATLIINRVEVGDEADYYCQVWDSTSDMYVFGAGTKVTVLG
B2: EV046130 (antibody, human IgG1, lambda, V domains shown)
VH: QVQLVESGGGVAQPGRSLRLSCAASGFTLSNYGMHWVRQAPGKGLEWVAVIWYDGRNKYYADSVKGRFTISRDDFKNTLDLQMNSLRAEDTAVYYCARDQHAGITMIEDWGQGTLVTVSS
VL: QSALTQPPSASGSPGQSVTISCTGTSSDVGYFKYVSWYQQHPGKAPKLLIYEVSKRPSGVPDRFSGSRSGNTASLTVSGLQADDEADYYCGSYAGNNNIIFGGGTKLTVLG
B3: EV046115b (antibody, human IgG1, lambda, V domains shown)
VH: QVQLVQSGAEVKKPGASVKVSCKASGYTFSVYGISWVRQAPGHGLEWMGWISAYNGDRGYAQKVQGRITMTTDTSASTAYMELRSLTSDDTAVYYCATTSSGVPGIYWGQGSLVTVSS
VL: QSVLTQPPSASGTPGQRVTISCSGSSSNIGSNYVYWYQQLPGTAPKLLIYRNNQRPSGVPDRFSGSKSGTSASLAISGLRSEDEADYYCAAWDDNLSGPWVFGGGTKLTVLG
B4: EV046136 (antibody, human IgG1, kappa, V domains shown)
VH: QVQLVQSGAEMKKPGASVKVSCKASGYTFTDYFIHWVRQAPGQGLEWMGWVNPNSGATNYAQKFQGRVTMTGDTSLSAAYVDLSRLSSDDSAVYYCARDRGLGISSTRNDAFDIWGQGTTVTVSS
VL: DIQLTQSPSSLSASVGDRVTITCQPSQGIRNFLNWYQQKPGKAPNLLIYDASNLETGVASRFSGSGSGTHFTLTISSLQPEDIATYFCQQYHSLPLTFGGGTKVEIKR
B5: EV046135 (antibody, human IgG1, lambda, V domains shown)
VH: QEQLVESGGDLVKPGGSLRITCAASGFTLSGYALVWVRQAPGRGLEWIADITASSTYINYAASVKGRFTISRDNAQSSLFLQMSSLRADDTGVYFCARLPHLPGFFDLWGRGTLVSVSS
VL: QSVLTQPPSVSGAPGQRVTISCTGNSSNIGAGYDVNWYQHLPGTAPKLLISVNTNRPSGVPDRFSGSMSGTSASLAITGLQAEDEADYYCQSYDRRLSGYVFGTGTKVTVLG

The target in the first assay is T1, F protein of human metapneumovirus strain JPS03-180 (type A1), on infectious virus (human metapneumovirus, strain JPS03-180 …). The experiment in a line: cell-based or functional assay.
For the molecule B1, the “IC50, neutralizing activity (hMPV infection of LLC-MK2 cells)” value (“IC50 … (hMPV infection of LLC-MK2 cells)” for short) is 0.07 µg/mL.
Same read-out and setting: with B2 the figure was 0.21 µg/mL; with B3, 0.29 µg/mL.
B4: the “IC50 … (hMPV infection of LLC-MK2 cells)” value came out at 0.29 µg/mL.
Same read-out and setting: the result for B5 reads 0.35 µg/mL.

A further assay addresses T2, F protein of human metapneumovirus strain JPS05-21 (type B2), on infectious virus (human metapneumovirus, strain JPS05-21 …). Put plainly: cell-based or functional assay.
Regarding B1, the “IC50 … (hMPV infection of LLC-MK2 cells)” value was found to be 0.24 µg/mL.
In the case of B2, the “IC50 … (hMPV infection of LLC-MK2 cells)” value came to 0.089 µg/mL.
Regarding B3, the “IC50 … (hMPV infection of LLC-MK2 cells)” value came out at 0.099 µg/mL.
The same measure, in the same setting: the result for B4 reads 0.46 µg/mL; that for B5, 0.22 µg/mL.

Another assay has as its target T3, F protein of human metapneumovirus strain JPS02-76 (type B1), on infectious virus (human metapneumovirus, strain JPS02-76 …, UniProt Q6WB98 19-539). Put plainly: cell-based or functional assay.
As to B1, the “IC50 … (hMPV infection of LLC-MK2 cells)” value amounted to 0.29 µg/mL.
As to B2, the “IC50 … (hMPV infection of LLC-MK2 cells)” value came to 0.23 µg/mL.
On the same count and under the same terms, the result for B3 reads 0.27 µg/mL; that for B4, 0.31 µg/mL.
B5: the “IC50 … (hMPV infection of LLC-MK2 cells)” value turned out to be 0.37 µg/mL.

The next assay concerns the target T1, F protein of human metapneumovirus …. Put plainly: cell-based or functional assay. This is another data set of the same source.
For B1, the “IC90, neutralizing activity (hMPV infection of LLC-MK2 cells; GraphPad Prism 6)” value (“IC90, neutralizing activity” for short) is 0.365 µg/mL.
In the case of B2, the “IC90, neutralizing activity” value amounted to 0.486 µg/mL.
Take B3: the “IC90, neutralizing activity” value came out at 1.03 µg/mL.
Still for that read-out and setting: the result for B4 reads 0.605 µg/mL; that for B5, 1.24 µg/mL.

The target in the next assay is T2, F protein of human metapneumovirus …. The experiment in a line: cell-based or functional assay. This is another data set of the same source.
As to B1, the “IC90, neutralizing activity” value was 0.677 µg/mL.
In the case of B2, the “IC90, neutralizing activity” value was 0.358 µg/mL.
The same measure, in the same setting: the result for B3 reads 0.345 µg/mL; that for B4, 1.78 µg/mL; that for B5, 0.748 µg/mL.

A further assay has as its target T4, F protein of human metapneumovirus strain JPS03-178 (type A2), on infectious virus (human metapneumovirus, strain JPS03-178 …). The experiment in a line: cell-based or functional assay.
On to B1, for which the “IC90, neutralizing activity” value came to 0.188 µg/mL.
In the case of B2, the “IC90, neutralizing activity” value was determined as 2.3 µg/mL.
With B3, the “IC90, neutralizing activity” value came to 5.75 µg/mL.
B4: the “IC90, neutralizing activity” value turned out to be 0.605 µg/mL.
Turning to B5, the “IC90, neutralizing activity” value was determined as 0.277 µg/mL.

The target of the next assay is T3, F protein of human metapneumovirus …. The experiment in a line: cell-based or functional assay. This is another data set of the same source.
As for B1, the “IC90, neutralizing activity” value was 0.952 µg/mL.
Still for that read-out and setting: the result for B2 reads 0.714 µg/mL; that for B3, 2.3 µg/mL.
Take B4: the “IC90, neutralizing activity” value came out at 0.895 µg/mL.
Same read-out and setting: the result for B5 reads 1.44 µg/mL.

A further assay addresses T1, F protein of human metapneumovirus …. Put plainly: cell-based or functional assay. The source holds these as a separate data set.
As to B1, the “IC50, neutralizing activity (hMPV infection of LLC-MK2 cells; GraphPad Prism 6)” value came to 0.0767 µg/mL.
Consider B2, for which the “IC50, neutralizing activity (hMPV infection of LLC-MK2 cells; GraphPad Prism 6)” value is 0.22 µg/mL.
In the case of B3, the “IC50, neutralizing activity (hMPV infection of LLC-MK2 cells; GraphPad Prism 6)” value came out at 0.322 µg/mL.
B4: the “IC50, neutralizing activity (hMPV infection of LLC-MK2 cells; GraphPad Prism 6)” value is 0.318 µg/mL.
In the case of B5, the “IC50, neutralizing activity (hMPV infection of LLC-MK2 cells; GraphPad Prism 6)” value was 0.348 µg/mL.

The target in another assay is T2, F protein of human metapneumovirus …. The experiment in a line: cell-based or functional assay. The source holds these as a separate data set.
Consider B1, for which the “IC50, neutralizing activity (hMPV infection of LLC-MK2 cells; GraphPad Prism 6)” value came out at 0.255 µg/mL.
Same read-out and setting: the result for B2 reads 0.105 µg/mL; that for B3, 0.108 µg/mL; that for B4, 0.537 µg/mL.
Still for that read-out and setting: the result for B5 reads 0.213 µg/mL.

A further assay has as its target T4, F protein of human metapneumovirus …. The experiment in a line: cell-based or functional assay. The source holds these as a separate data set.
In the case of B1, the “IC50, neutralizing activity (hMPV infection of LLC-MK2 cells; GraphPad Prism 6)” value worked out at 0.0407 µg/mL.
On the same count and under the same terms, with B2 the figure was 1.95 µg/mL.
For the molecule B3, the “IC50, neutralizing activity (hMPV infection of LLC-MK2 cells; GraphPad Prism 6)” value amounted to 2.28 µg/mL.
For B4, the “IC50, neutralizing activity (hMPV infection of LLC-MK2 cells; GraphPad Prism 6)” value stood at 0.318 µg/mL.
The same measure, in the same setting: the result for B5 reads 0.0316 µg/mL.

For the next assay, the target named is T1, F protein of human metapneumovirus …. Put plainly: cell-based or functional assay. This is another data set of the same source.
Take B1: the “IC60, neutralizing activity (hMPV infection of LLC-MK2 cells; GraphPad Prism 6)” value (shortened to “IC60, neutralizing activity”) is 0.102 µg/mL.
Turning to B2, the “IC60, neutralizing activity” value is 0.254 µg/mL.
On the same count and under the same terms, with B3 the figure was 0.4 µg/mL; with B4, 0.358 µg/mL; with B5, 0.44 µg/mL.

The target in the next assay is T2, F protein of human metapneumovirus …. The experiment in a line: cell-based or functional assay. The source holds these as a separate data set.
B1: the “IC60, neutralizing activity” value was found to be 0.305 µg/mL.
Take B2: the “IC60, neutralizing activity” value was determined as 0.132 µg/mL.
As for B3, the “IC60, neutralizing activity” value worked out at 0.133 µg/mL.
Consider B4, for which the “IC60, neutralizing activity” value was 0.67 µg/mL.
For B5, the “IC60, neutralizing activity” value amounted to 0.268 µg/mL.

The next assay has as its target T4, F protein of human metapneumovirus …. Put plainly: cell-based or functional assay. The source holds these as a separate data set.
As to B1, the “IC60, neutralizing activity” value worked out at 0.0539 µg/mL.
Consider B2, for which the “IC60, neutralizing activity” value came to 2.01 µg/mL.
Take B3: the “IC60, neutralizing activity” value turned out to be 2.71 µg/mL.
Regarding B4, the “IC60, neutralizing activity” value worked out at 0.358 µg/mL.
B5: the “IC60, neutralizing activity” value was found to be 0.0471 µg/mL.

For a further assay, the target named is T3, F protein of human metapneumovirus …. Put plainly: cell-based or functional assay. The source holds these as a separate data set.
For the molecule B1, the “IC60, neutralizing activity” value came to 0.423 µg/mL.
Take B2: the “IC60, neutralizing activity” value was 0.354 µg/mL.
On the same count and under the same terms, with B3 the figure was 0.376 µg/mL; with B4, 0.419 µg/mL.
Turning to B5, the “IC60, neutralizing activity” value was 0.571 µg/mL.

Another assay shares this target. Put plainly: cell-based or functional assay. This is another data set of the same source.
For B1, the “IC50, cell-to-cell spread inhibitory activity (LLC-MK2 cells stably expressing TMPRSS2)” value amounted to 0.0482 µg/mL and the “IC90, cell-to-cell spread inhibitory activity (LLC-MK2 cells stably expressing TMPRSS2)” value was 0.26 µg/mL.
On to B2, for which the “IC50, cell-to-cell spread inhibitory activity (LLC-MK2 cells stably expressing TMPRSS2)” value stood at 0.0349 µg/mL and the “IC90, cell-to-cell spread inhibitory activity (LLC-MK2 cells stably expressing TMPRSS2)” value stood at 0.147 µg/mL.
With B3, the “IC50, cell-to-cell spread inhibitory activity (LLC-MK2 cells stably expressing TMPRSS2)” value came out at 0.135 µg/mL and the “IC90, cell-to-cell spread inhibitory activity (LLC-MK2 cells stably expressing TMPRSS2)” value was 0.617 µg/mL.
As for B4, the “IC50, cell-to-cell spread inhibitory activity (LLC-MK2 cells stably expressing TMPRSS2)” value was found to be 0.0522 µg/mL and the “IC90, cell-to-cell spread inhibitory activity (LLC-MK2 cells stably expressing TMPRSS2)” value was found to be 0.212 µg/mL.
Take B5: the “IC50, cell-to-cell spread inhibitory activity (LLC-MK2 cells stably expressing TMPRSS2)” value was 0.0308 µg/mL and the “IC90, cell-to-cell spread inhibitory activity (LLC-MK2 cells stably expressing TMPRSS2)” value is 0.231 µg/mL.
